The source of these data is publication PMC12145424, “Structural insights into tRNA recognition of the human FTSJ1-THADA complex” (Communications Biology, 2025).

The target in this assay is T1, Human THADA (FLAG- and streptavidin-binding-sequence-tagged, co-expressed with FTSJ1) (human, UniProt Q6YHU6 1-1953).
T1 construct: THADA, human; gene PCR-amplified and cloned into a modified pcDNA3.4 vector; no TEV cleavage step is described; also called Trm732 (yeast name); not shown: FLAG, N-terminal, kept
The assay is described as follows: SEC; FTSJ1 and THADA co-expressed in HEK293F, purified on anti-FLAG beads, then HiLoad 16/600 Superdex 200pg in 20 mM Tris-HCl pH 7.5, 150 mM NaCl, 2 mM DTT; fractions analysed by SDS-PAGE. To be noted: both partners purified. On the technique in general: In gel filtration, larger molecules generally elute earlier.

T1 sequence (Q6YHU6 whole entry): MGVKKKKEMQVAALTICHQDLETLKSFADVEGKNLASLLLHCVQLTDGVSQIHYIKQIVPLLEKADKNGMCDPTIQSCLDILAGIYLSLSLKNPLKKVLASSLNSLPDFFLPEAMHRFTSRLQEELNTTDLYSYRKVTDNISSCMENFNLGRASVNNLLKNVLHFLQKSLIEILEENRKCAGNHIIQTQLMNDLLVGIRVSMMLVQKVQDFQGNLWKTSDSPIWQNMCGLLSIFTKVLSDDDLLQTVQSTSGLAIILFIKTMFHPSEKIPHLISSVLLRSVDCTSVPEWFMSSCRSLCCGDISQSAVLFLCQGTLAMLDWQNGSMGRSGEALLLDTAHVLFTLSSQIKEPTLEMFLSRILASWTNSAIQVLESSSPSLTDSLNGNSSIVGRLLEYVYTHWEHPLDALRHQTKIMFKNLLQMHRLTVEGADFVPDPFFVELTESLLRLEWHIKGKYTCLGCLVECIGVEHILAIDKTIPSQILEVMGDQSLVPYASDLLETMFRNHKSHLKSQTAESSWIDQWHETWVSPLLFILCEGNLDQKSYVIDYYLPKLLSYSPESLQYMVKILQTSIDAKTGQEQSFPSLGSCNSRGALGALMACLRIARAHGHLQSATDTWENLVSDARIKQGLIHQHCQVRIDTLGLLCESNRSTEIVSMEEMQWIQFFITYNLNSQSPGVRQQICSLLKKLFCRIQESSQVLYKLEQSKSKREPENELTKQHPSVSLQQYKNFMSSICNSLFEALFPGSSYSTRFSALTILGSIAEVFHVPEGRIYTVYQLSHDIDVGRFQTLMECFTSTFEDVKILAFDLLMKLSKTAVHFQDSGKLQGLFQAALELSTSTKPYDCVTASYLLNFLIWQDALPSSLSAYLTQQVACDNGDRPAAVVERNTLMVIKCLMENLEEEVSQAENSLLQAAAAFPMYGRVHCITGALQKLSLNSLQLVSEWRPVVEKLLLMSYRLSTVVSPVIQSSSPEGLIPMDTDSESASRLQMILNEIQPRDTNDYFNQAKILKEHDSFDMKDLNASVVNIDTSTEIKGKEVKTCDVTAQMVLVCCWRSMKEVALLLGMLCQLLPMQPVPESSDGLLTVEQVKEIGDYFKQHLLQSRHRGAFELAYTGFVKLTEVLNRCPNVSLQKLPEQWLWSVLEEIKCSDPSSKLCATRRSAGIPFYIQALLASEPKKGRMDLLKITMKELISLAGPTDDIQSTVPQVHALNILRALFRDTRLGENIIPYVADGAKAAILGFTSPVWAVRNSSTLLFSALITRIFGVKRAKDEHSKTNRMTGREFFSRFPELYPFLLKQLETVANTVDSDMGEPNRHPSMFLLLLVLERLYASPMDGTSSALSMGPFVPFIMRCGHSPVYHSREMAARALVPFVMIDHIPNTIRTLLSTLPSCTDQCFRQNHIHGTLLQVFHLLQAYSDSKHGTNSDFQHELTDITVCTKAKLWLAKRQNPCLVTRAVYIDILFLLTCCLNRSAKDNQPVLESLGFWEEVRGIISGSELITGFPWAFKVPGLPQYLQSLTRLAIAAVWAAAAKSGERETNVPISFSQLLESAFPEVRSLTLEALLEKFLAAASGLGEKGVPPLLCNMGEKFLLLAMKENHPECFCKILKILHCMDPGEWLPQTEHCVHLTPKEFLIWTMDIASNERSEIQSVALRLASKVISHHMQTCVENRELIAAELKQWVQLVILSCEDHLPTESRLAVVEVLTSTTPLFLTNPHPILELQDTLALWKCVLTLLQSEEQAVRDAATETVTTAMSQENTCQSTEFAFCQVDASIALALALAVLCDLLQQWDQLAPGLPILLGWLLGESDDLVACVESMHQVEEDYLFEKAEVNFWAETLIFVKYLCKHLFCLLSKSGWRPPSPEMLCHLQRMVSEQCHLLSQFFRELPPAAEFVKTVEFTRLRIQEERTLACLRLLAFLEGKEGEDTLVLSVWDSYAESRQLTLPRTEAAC

B1: Human FTSJ1 (FLAG-tagged, co-expressed with THADA) (enzyme)
chain: MGRTSKDKRDVYYRLAKENGWRARSAFKLLQLDKEFQLFQGVTRAVDLCAAPGSWSQVLSQKIGGQGSGHVVAVDLQAMAPLPGVVQIQGDITQLSTAKEIIQHFKGCPADLVVCDGAPDVTGLHDVDEYMQAQLLLAALNIATHVLKPGGCFVAKIFRGRDVTLLYSQLQVFFSSVLCAKPRSSRNSSIEAFAVCQGYDPPEGFIPDLSKPLLDHSYDPDFNQLDGPTRIIVPFVTCGDLSSYDSDRSYPLDLEGGSEYKYTPPTQPPISPPYQEACTLKRKGQLAKEIRPQDCPISRVDTFPQPLAAPQCHTLLAPEMEDNEMSCSP
notes: FTSJ1, human; gene PCR-amplified and cloned into a modified pcDNA3.4 vector; no TEV cleavage step is described in the purification; also called Trm7 (yeast name); not shown: FLAG, N-terminal, kept
With B1, the binding result was “binds”.
